Key:
[1] = system: transforming growth factor-beta (TGF); experiment: Binding of transforming growth factor-beta
[2] = Hematological and Pathological Assessment of Fetuin in Balb/C Mice; assay type: in vivo
Method: The Balb/C mice weighing 20-30 g at six to eight weeks of age were divided in six animals per group, 3 female and 3 male, in this study. Fetuin is administered IV or IP at dose of 5 mg, 0.5 mg, 0.05 mg and 0.005 mg per 20 gm mouse for 7 days. Because the nutritional supplement has potential beneficial effects on the immune response, potential toxicity is determined by clinical hematological and classical pathological parameters.
Pre-study assessment of highest tolerated dose administration by IV or IP injection. The end-point is the highest non-lethal dose administered by each route. Animals are screened daily for signs of lethality and the total time of observation is seven days.
Clinical and histological assessment of highest tolerated and lessor doses of Fetuin. Seven days prior to the beginning of phase II each animal is bled to determine its background values for hematological and clinical chemistry parameters. The highest tolerated dose and the next lowest, as well as the vehicle are injected in a single injection by the best-tolerated route. After 24 hours the animals are sacrificed. Gross and microscopic pathologic examination are performed on the organs. Hematological, clinical chemistries and clinical pathology tests are performed: (1) Blood Collection and Analysis: Blood samples are collected from each mouse, one at the start of the experiment prior to receiving their injection of Fetuin and the second collected at the time of euthanasia. The samples are collected via retro-orbital sinus bleed, or tail bleed, under anesthesia. (2) Hematology: Approximately 125 ul of whole blood is collected in an EDTA tube at the specified time. The following hematological parameters are determined: White blood cell count (WBC), Red blood cell count (RBC), Hemoglobin (HGB), Hematocrit (HCT), Mean Corpuscular Volume (MCV), Mean Corpuscular Hemoglobin (MCH), Mean Corpuscular Hemoglobin […] (MCHC), Platelet count (PLT), WBC differential count. Whole blood samples for hematology are disposed of one week after analysis. (3) Clinical Chemistry: Approximately 125 ul of whole blood is collected in a tube containing no additives for serum at the specified times. Tests determine the following clinical chemistry parameters: Alanine aminotransferase (ALT) and Aspartate aminotransferase (AST). (4) Collection of Tissue: The following tissues are collected into 10% neutral buffered formalin (NBF): kidney, liver, lung, thymus, reproductive organ, heart, spleen and lymph nodes. Any abnormalities or gross pathology found at necroscopy are recorded for each animal. (5) Histopathology: Histology is done on the tissue samples submitted for each animal. The tissues will be paraffin-embedded, sectioned and stained with hematoxylin and eosin (H&E). A pathology reads the slides for apparent abnormalities.
Clinical and histological assessment of highest tolerated dose of Fetuin administered daily over 14 days. The highest tolerated dose as determined in Phase II and the vehicle is injected daily for fourteen consecutive days by the best-tolerated route. After 24 hours, one-half of the animals are sacrificed. The remainder are sacrificed after 14 days. Gross microscopic pathologic examination are performed on the organs recovered from all animals. (1) Blood collection and analysis: Blood sample is collected from each mouse, one at the start of the experiment prior to receiving their injection of Fetuin and the second collected at the time of euthanasia. The samples are collected via retro-orbital sinus bleed or tail bleed under anesthesia. (2) Hematology: Approximately 125 ul of whole blood is collected in an EDTA tube at the specified time. The following hematology parameters is determined: White blood cell count (WBC), Red blood cell count (RBC), Hemoglobin (HGB), Hematocrit (HCT), Mean Corpuscular Volume (MCV), Mean Corpuscular Hemoglobin (MCH), Mean Corpuscular Hemoglobin […] (MCHC), Platelet count (PLC), WBC differential count. […]

PC-3 induced tumor = experiment: Prostate Tumor Inhibition Model (PC-3, nude mice); assay type: in vivo, nude adult male mice; conditions: for Avg. Weight Tumor / Avg. Weight mice / Total Weight Tumor: nude mice with PC-3 tumors
Method: The 30-35 g nude adult male mice were used for this study. The inoculum of PC-3 cells applied to induce tumor formation was adjusted with RPMI-1640 to 2×10^7 cells/0.1 ml. To induce tumor formation, a 0.1 ml suspension of PC-3 was injected subcutaneously at a site between the ears using a 26 gauge, ⅜″ needle. The tumors were allowed to grow for 38 days. The mice in the control group received 0.1 ml saline intraperitoneally for 10 days. Mice in the treated group received 10 consecutive 0.1 ml intraperitoneal injections of Fetuin adjusted by dilution in sterile deionized water to deliver dose concentration of 0.1 ml, 0.01 ml and 0.001 ml at 10 mg/ml. Tumors were weighed individually when the mice were sacrificed for subsequent histopathology study.

[3] = Fetuin 0.001 ml × 10 ip (10 mg/ml)
[4] = Fetuin 0.01 ml × 10 ip (10 mg/ml)
[5] = Fetuin 0.1 ml × 10 ip (10 mg/ml)

Fetuin: Fetal bovine fetuin purified from fetal bovine serum by modified Spiro method; 60 Kd glycoprotein, homologue of alpha 2-HS glycoprotein
binding of transforming growth factor-beta (TGF) [1]: high affinity
Blood glucose levels ([2]; Balb/C mice, 0.005 mg per animal): 13 mg/dL
Blood glucose levels ([2]; Balb/C mice, 0.05 mg Fetuin): 27 mg/dL
Blood glucose levels ([2]; Balb/C mice, 0.5 mg Fetuin): 25 mg/dL
Blood glucose levels ([2]; Balb/C mice, 5 mg Fetuin per animal): 41.6 mg/dL
cholesterol levels elevated compared to the lower doses ([2]; Balb/C mice, 5 mg per mouse, P<0.05): 14%
survival and clinical signs ([2]; Balb/C mice, 5, 0.5, 0.05 and 0.005 mg Fetuin via IP route, 7 days): survived for 7 days without any signs of distress
White Blood Cell (WBC) levels ([2]; Balb/C mice, 24 hrs after injection of various doses, p=0.126): within the normal limits
AST (Aspartate Aminotransferase) level ([2]; Balb/C mice, P=0.306): within the normal limits
ALT (Alanine Aminotransferase) level ([2]; Balb/C mice, P=0.444): within the normal limits
microscopic structure of tissues ([2]; Balb/C mice, all dosage groups): normal in architecture
body weight change ([2]; Balb/C mice, control vs Fetuin treated group): no significant body weight change
Blood Urinary Nitrogen (BUN) levels ([2]; Balb/C mice, highest and lowest dose groups, unrelated to dose): elevated
overall toxicity ([2]; Balb/c mouse): very low toxicity
red blood cell count, white blood cell count and platelet count ([2]; healthy animals, 5-fold increased dose): did not affect
safety by hematological, clinical chemistry and histopathological analysis ([2]; healthy mice, 2.5-5 fold higher dose than effective in cancer-bearing mice): no obvious adverse effect was observed
prostate tumor size compared to the control group (PC-3 induced tumor; highest doses): 40%
Avg. Weight Tumor (PC-3 induced tumor; [3]): 2.03 g
Avg. Weight mice (PC-3 induced tumor; [3]): 33.9 g
Total Weight Tumor (PC-3 induced tumor; [3]): 6.1 g
Avg. Weight Tumor (PC-3 induced tumor; [4]): 2.08 g
Avg. Weight mice (PC-3 induced tumor; [4]): 35.3 g
Total Weight Tumor (PC-3 induced tumor; [4]): 6.24 g
Avg. Weight Tumor (PC-3 induced tumor; [5]): 1.01 g
Avg. Weight mice (PC-3 induced tumor; [5]): 32.0 g
Total Weight Tumor (PC-3 induced tumor; [5]): 3.04 g

— US20030044400A1, “Composition and method for treating cells” (priority 2001, published 2003)
